Assay results published in US20030186377.

Tested on: T-bet protein (modified forms used as substrates in in vitro kinase assays)

| Substance | phosphorylation in in vitro kinase assay |
| --- | --- |
| Rlk/Txk | Both the ITK and Rlk/txk kinases have been found to phosphorylate T-bet in vitro. |
| ITK | Both the ITK and Rlk/txk kinases have been found to phosphorylate T-bet in vitro. |
